Measured values published in patent publication US20060115837A1 (WASHINGTON UNIVERSITY, published 2006).

T1: West Nile Virus envelope protein on WNV virions (West Nile Virus, UniProt Q9Q6P4 291-791)
T1 sequence: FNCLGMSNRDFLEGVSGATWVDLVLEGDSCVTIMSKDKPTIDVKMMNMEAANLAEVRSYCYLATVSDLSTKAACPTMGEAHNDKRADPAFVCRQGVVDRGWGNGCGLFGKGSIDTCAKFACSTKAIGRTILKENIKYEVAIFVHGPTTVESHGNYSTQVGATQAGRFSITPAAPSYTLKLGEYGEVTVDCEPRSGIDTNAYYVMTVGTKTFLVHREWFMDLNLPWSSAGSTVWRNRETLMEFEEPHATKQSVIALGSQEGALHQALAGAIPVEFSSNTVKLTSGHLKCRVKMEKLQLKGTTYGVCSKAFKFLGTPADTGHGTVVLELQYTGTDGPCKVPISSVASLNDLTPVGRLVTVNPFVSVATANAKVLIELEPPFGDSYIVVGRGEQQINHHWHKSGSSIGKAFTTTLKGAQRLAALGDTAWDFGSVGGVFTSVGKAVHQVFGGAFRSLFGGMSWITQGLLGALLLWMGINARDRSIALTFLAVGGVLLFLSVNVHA

B1: monoclonal antibody E16 (antibody, V domains shown)
VH: QVQLQQSGSELMKPGASVQISCKATGYTFSDYWIEWVKQRPGHGLEWIGILCGTGRTRYNEKLKAMATFTADTSSNTAFMQLSSLTSEDSAVYYCARSASYGDYADYWGHGTTLTVSS
VL: DIVMTQSHKFMSTSVGDRVSITCKASQDVSTAVAWYQQKPGQSPKLLISWASTRHTGVPDRFTGSGSGTDYTLTISSVQAEDLALYYCQQHYTTPLTFGAGTKLELK

How the values were obtained:
[1] = target: West Nile Virus envelope protein on WNV virions (West Nile Virus) (UniProt Q9Q6P4); assay: cell-based or functional assay
[2] = target: T1, West Nile Virus envelope protein on WNV …; assay: cell-based or functional assay

Molecule | blockade of cellular attachment of WNV to Vero cells (cell-associated viral RNA by fluorogenic RT-PCR), fold reduction [1] [fold] | blockade of cellular attachment of WNV to Vero cells (cell-associated viral RNA by fluorogenic RT-PCR), fold reduction [2] [fold]
monoclonal antibody E60 | 8 to 9 | 
B1 |  | 3.5
